Laboratory results reported in PMC10251734.

Target: SARS-CoV-2 Wuhan-Hu-1 spike, soluble trimeric, residues 1-1204, 6 proline mutations (SARS-CoV-2) (UniProt P0DTC2)
Test: SEC

For “SARS-CoV-2 Wuhan-Hu-1 spike, soluble trimeric, residues 1-1204, 6 proline mutations (from UniProt P0DTC2 14-1204) (domain or fragment)”, the stoichiometry N was 3.
